The record followed here is the nanobody polyreactivity screen of Harvey et al. (2022).

A short description of this series: yeast display, Sf9 membrane polyspecificity reagent, FACS + sequencing; frameworks hold sequencing errors. An outline of the steps: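 Polyreactivity labels are assigned by the sorting gate from which each nanobody was recovered. The gates were low and high (top ~1%), set on anti-HA fluorescence for expression and streptavidin fluorescence for reagent binding. Before sorting, galactose-induced (36–48 hours) yeast display cells were stained for 1 hour at 4 °C with 10% biotinylated, detergent-solubilized Sf9 membrane reagent.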
Consider “QVQLVESGGGLVQAGGSLRLSCSAYGFIFTGYAMGWYRQAPGKEREFVAAISYSGGSTYADSVKGRFTISRDNAKNSVYLQMNSLKPEDTAVYYCNARQGLWRYTAENDYWGQGTQVTVSS”, for which the “polyreactivity (PSR sort gate)” value is given as “low polyreactivity”. For the sequence “QVQLVESGGGLVQAGGSLRLSCAASGFTFYGNAMGWYRQAPGKERELVAAISSRVGRTYYADSVKGRFTISRDNAKNTVYLQMNSLKPEDTAVYYCAKAPYGVRRGLYDYWGQGTQVTVSS”, the “polyreactivity (PSR sort gate)” value is listed as “high polyreactivity”. Take “QVQLVESGGGLVQAGGSLRLSCASSGGTFVTNAMGWYRQAPAKERELVAAISYDGGITYYADSVKGRFTISRDNAKNTVYLKMNSLKPEDTAVYYGAAYRRYRNWFNYWGQGTQVTVSS”: the “polyreactivity (PSR sort gate)” value was “high polyreactivity”. The entry for “QVQLVESGGGLVQAGGSLRLSCAASGRIFDYYTMGWYRQAPGKESELVAAITKSGGSTYYADSVKGRFTISRDNAKNTVFLLMNILKPEDTAVYYCAAVTYDYYWFGDIEDDFWGQGTQVTVSS” is “low polyreactivity”. “QVQLVESGGGLVQAGGSLRLSCAASGRTFSIYAMGCYRQAPGKEREFVAAIRDRGTSTYYADSVKGRFTISRDNAKNTVYLQMNSLKPEDTGVFYCAAVRPYKYQDRDYWGQGTQVTVSS”: the “polyreactivity (PSR sort gate)” value is “high polyreactivity”. As for “QVQLVESAGGIVQEGGSLRLSCAASGGTFTNYALGWYRQAPGKERELVAAITDSGAHTYYADSVKGRFTISRDNAKNKVYLQMYCLKPEDTAVYYCNAELDLYTDFDYWGQVTQVTVSS”, the “polyreactivity (PSR sort gate)” value is listed as “low polyreactivity”. The entry for “QVQLVESGGGLVQAGGSLRLSCAASGRTFHSYAMGWYRQAPGKERELVAAITSSGGSTYYADSVKGRFTISRDNAKNTVYLQMNSLKPEDTAVYYGNAYVRYGYGYYYWGQGTQVTVSS” is “high polyreactivity”; for “QVQLVESGGGLVQAGGSLRLSCAASGLTFDRYAKGWYRQAPGKERELVAAITSGGSTYYADSVKGRFTISRDNAKNTVYLQMNSLKPEDTAVYYCAALVFRGRSFTHDYWGQGTQVTVSS” it is “high polyreactivity”; for “QVQLVESGGGLVQAGGSLRLSCAASGSIFRGNAMGWYRQAPGKERELVAAISKSGGSTYYADSVKGRFTISRDNAKNTVNLQMNSLKPEDTAVYYCAARTTYLYGMYYWGQGTQVTVSS” it is “low polyreactivity”. As to “QVQLHESGGGLVQAGGSLRMSCAASGTISYAGPMGWYLQATGKESEFVAGIGVGSNTNYADSVKGRYTIIRDNAINTLYLQLNSLQPEDTAVYYGAVGGYAPLGRPYWGQGTQVTVRS”, the “polyreactivity (PSR sort gate)” value is listed as “low polyreactivity”. Turning to “QVQLVESGGGLVQAGGSLRLSCAASGRIFPAYAMGWYRQAPGKERELVAAITWTGGRTYYADSVKGRFTISRDNAKNSFYLQMNILKPEDTAVYYCAKAPARSRGYEYWGQGTQVTVSS”, the “polyreactivity (PSR sort gate)” value is reported as “low polyreactivity”. Turning to “QVQLVESGGGLGQAGGSLRLSCAASGSIYNDNVMGWYRQAPGKERELVAGISRSGTRTYYADSVKGRFTISRDNAKNTVYLQMNSLKPEDTAVYYCAAAYGQARRYNASQYGSWGQGTQVTVSS”, the “polyreactivity (PSR sort gate)” value is recorded as “high polyreactivity”. Then “QVQLVESGGGLVQAGGSLRLSCAASGFIFYPYAMGWYRQAPGKERELVAAITWSGSRTYYADSVKGRFTISRDNAKHTVYLQMNSLKPEDTAVYYCNKYPQPTAYDYWGQGTQVTVSS”, with “high polyreactivity”. Take “QVQIVESGGGLVQAGRSLSLSCAASGYTFLPNVMGWYRQAPGKERELVAAIYSRGGRTYYADSVKGRFTISRDNAKNTVYLQMNSLKPEDTAVYYCAAYTRYTTGSAGIYRDDYWGQGTQVTVSS”: the “polyreactivity (PSR sort gate)” value was “high polyreactivity”. As for “QVQLVESGGGLVQAGGSLRLSCAASGITFYRYAMGWSRQAPGKERELVAAIRRAGSTYYADSVKGRFTISRDIAKNSVYLQMNSLKPEDTAVYYCNARYGIGMNYWGQGTHVTVSS”, the “polyreactivity (PSR sort gate)” value is on record as “high polyreactivity”. As to “QVQLVESGGGLVQAGGSLRLSCAASGSTFSDYAMGWYRQAPGKERELVAAISGGGTTDYADSVKGRFTISRDNAKNTVYLQMNSLKPEDTAVYYCNKPVEGSFLPYSYLRFDYWGQGTHVTVSS”, the “polyreactivity (PSR sort gate)” value is recorded as “low polyreactivity”.
